# According to US20120311746A1:
# Molecular target: receptors in brush border membrane vesicles produced from Spodoptera frugiperda (fall armyworm, FAW)
# Assay: competitive displacement of 0.5 nM ^125I Cry1Be (competitor) from FAW BBMV
substance,measurement,value
Cry1Fa protein from Bacillus thuringiensis (from UniProt Q03746 28-605) (ligand),concentration at which displacement of ^125I Cry1Be is effective,> 100 nM
